Results taken from patent US20230174670A1 (JIANGSU HENGRUI PHARMACEUTICALS, published 2023).
Positions count from the first letter of the chain named.

T1: recombinant monkey CD25-His protein (monkey (cynomolgus), UniProt H6WS54 1-213)
T1 construct: range 1-213; also called cynomolgus monkey (Cyno) CD25
T1 sequence: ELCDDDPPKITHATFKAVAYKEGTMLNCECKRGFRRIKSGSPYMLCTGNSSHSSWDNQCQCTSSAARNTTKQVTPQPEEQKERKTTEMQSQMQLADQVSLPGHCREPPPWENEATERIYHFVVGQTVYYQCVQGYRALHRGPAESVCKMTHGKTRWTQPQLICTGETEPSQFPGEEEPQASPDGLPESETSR

T2: recombinant human CD25-His protein (human, UniProt P01589 22-213)
T2 construct: range 22-213; Purchased from Sino Biological Inc. Printed construct Met1-Cys213 includes the signal peptide
T2 sequence (looked up): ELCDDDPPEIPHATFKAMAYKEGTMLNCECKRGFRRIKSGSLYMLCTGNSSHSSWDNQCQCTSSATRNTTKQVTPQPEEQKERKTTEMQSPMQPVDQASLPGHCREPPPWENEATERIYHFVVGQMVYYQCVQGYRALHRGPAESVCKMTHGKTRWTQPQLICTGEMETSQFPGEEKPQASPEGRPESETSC

T3: human CD25 on cells (human, UniProt P01589 22-272)
T3 sequence (looked up): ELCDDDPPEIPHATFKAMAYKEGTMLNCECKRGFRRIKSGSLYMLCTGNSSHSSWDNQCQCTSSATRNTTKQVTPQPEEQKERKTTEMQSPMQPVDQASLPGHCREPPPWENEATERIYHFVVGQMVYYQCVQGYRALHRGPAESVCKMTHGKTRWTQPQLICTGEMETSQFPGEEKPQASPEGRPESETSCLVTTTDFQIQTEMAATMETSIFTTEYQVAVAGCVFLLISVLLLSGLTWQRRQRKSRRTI

B1: cAb001 (antibody, V domains shown)
VH: QVTLKESGPGILQPSQTLSLTCSFSGFSLNTFGMGVGWIRQPSGKGLEWLAHIWWDDDKYYNPALKSRLTISKDTSKNQVFLKIANVDTADTVTYYCARITTEVGNYDVWGMGTTVTVSS
VL: EIVLTQSPALMAASPGEKVTITCSVSSGITSNNLHWYQQKSETSPKPWIYGTSNLASGVPIRFSGSGSGTSYSLTISSMEAEDAATYYCQQWSSYPFTFGSGTKLEIK
notes: also called mAb001/cAb001
B2: cAb029 (antibody, human IgG1, V domains shown)
VH: QVTLKESGPGILQPSQTLSLTCSFSGFSLSTFGMGVGWIRQPSGKGLEWLAHIWWDDDEYYNPALKSRLTISKDTSKNQVFLKIANVDTADTATYYCTRIMLTTGYFDVWGTGTTVTVSS
VL: B1 VL with S24T, N32S, I61V, K104R
notes: also called mAb029/cAb029
B3: cAb002 (antibody, human IgG1, V domains shown)
VH: QVTLKESGPGILQPSQTLSLTCSFSGFSLSTFGLGVGWIRQPSGKGLEWLAQIWWDDDEYYNPALKSRLTISKDTSRNQVFLKIANVDTGDTATYFCARMGDTYWYFDVWGTGTTVAVSS
VL: B1 VL with L4V, A13V, V25L, N32S, I61V, G69K
notes: also called mAb002/cAb002
B4: cAb042 (antibody, human IgG1, V domains shown)
VH: QVQLQQSGPELVKSGASVKLSCKASGYTFTTYDINWMKQRPGQGLEWIGWIYPRDGSTKYNAKFKGKATLTEDTSSNTAFMELHSLTSEDSAVYFCARERIYDGSFDYWGQGTTLTVSS
VL: DIVMTQSPSSLSVSAGEKVSMRCKSSQRLFNSRDQKNYLAWYQQKPGQPPKLLIYGASTRESGVPDRFTGSGSGTDFTLTISSVQAEDLAVYYCQNDHIYPLTFGAGTKLELK
notes: also called mAb042/cAb042
B5: cAb006 (antibody, human IgG1, V domains shown)
VH: QIQLQQSGAELMKPGASVKLSCKATGYTFTGHWIEWVKQRPGHGLEWVGEILPGSNKINYNEKFKGKATFTAETSSNTVYMQLSSLTTEDSAIYYCAGGGGPHWPFAFWGQGSLVTVSA
VL: DIVLTQSPASLTVSLGQRATISCRASESVNVHGAHLMHWYQQKPGQPPKLLIYAASILESGVPARFSGSGSETDFTLNIHPVEEEDAATYFCQQTIEDPRTFGGGTKLEIK
notes: also called mAb006/cAb006
B6: cAb037 (antibody, human IgG1, V domains shown)
VH: QVRLQQSGPELVKPGASVQMSCKASGYTFTDYYINWVKQRPGQGLEWIAWIFPGNGNTYFNENFKDKATLSVDKFSSTAFMLLSSLTSEDSAVYFCARATYDHGGYWYFDVWGTGTTVTVSS
VL: QIVLSQSPAILSASPGEKVTMTCRASSSVSHIHWYQQKPGSSPKPWIYATSNLASGVPGRFSGSGSGTSYSLTVSRVEAEDAATYYCQHWNSFTFGGGTELELK
notes: also called mAb037/cAb037
B7: cAb028 (antibody, human IgG1, V domains shown)
VH: EVQLQQSGAELVRPGASVKLSCTASGFNIKNDYVHWVKQRPEQGLEWIGYIDPDNGDTEYASKFLGKATITADTSSNTAYLQLSSLTSEGTAVYYCTTDDTSYGMFACWGLGTLVTVSA
VL: DVLMTQTPLSLPVSLGDQASISCRSSQSIVHSNGNTYLEWYLQKPGQSPKLLIYKVSNRFSGVPDRFSGSGSGTDFTLKISRVEAEDLGVYYCFQGSHVPWTFGGGTKLEIK
notes: also called mAb028/cAb028
B8: cAb046 (antibody, human IgG1, V domains shown)
VH: EVQLVESGGGLVKPGGSLKLSCAASGFTFSSYAMSWVRQTPEKRLEWVATISEGGSYTYYPDNVKGRFTISRDNARNNLYLQMSHLKSEDTAMYLCVRDNPWFAYWGQGTLVTVST
VL: B7 VL with Q18R, S28N, Y41F, N58K, W101Y
notes: also called mAb046/cAb046
B9: cAb004 (antibody, human IgG1, V domains shown)
VH: EVQLQQSGAELVRPGASVKLSCTASGFNIKDDYIQWVKQRPEQGLEWIGWIDPENGDTEYASKFQDKATITSDTSSNTAYLQLSSLTSEDTAVYYCAATTFYASNYGFAYWGQGTLVTVSA
VL: B7 VL with L3V, I29L, E39H, K50Q, V83L, Y92F, F94S, G96S, S97T, W101Y
notes: also called mAb004/cAb004
B10: PR006 (antibody, human IgG1, kappa, V domains shown)
VH: EVQLVQSGAEVKKPGASVKVSCKASGYTFTGHWIEWVRQAPGQGLEWMGEILPGSNKINYNEKFKGRVTFTADTSTSTVYMELSSLRSEDTAVYYCAGGGGPHWPFAFWGQGTLVTVSS
VL: DIVMTQSPDSLAVSLGERATINCRASESVNVHGAHLMHWYQQKPGQPPKLLIYAASILESGVPDRFSGSGSGTDFTLTISSLQAEDVAVYYCQQTIEDPRTFGGGTKVEIKR
B11: PR071 (antibody, human IgG1, kappa, V domains shown)
VH: EVQLVQSGSELKKPGASVKVSCKASGYTFTDYYINWVRQAPGQGLEWMAWIFPGNGNTYFNENFKDRVTLTADKFSSTAYMELSSLRSEDTAVYYCARATYDHGGYWYFDVWGQGTTVTVSS
VL: EIVLSQSPATLSLSPGERATLSCRASSSVSHIHWYQQKPGSSPKPWIYATSNLASGVPGRFSGSGSGTSYSLTVSRVEAEDAATYYCQHWNSFTFGGGTKVEIKR
B12: PR058 (antibody, human IgG1, kappa, V domains shown)
VH: EVQLVESGGGLVQPGGSLRLSCAASGFTFSSYAMSWVRQAPGKRLEWVATISEGGSYTYYPDNVKGRFTISRDNSKNTLYLQMNSLRAEDTAVYLCVRDNPWFAYWGQGTLVTVSS
VL: DVLMTQSPLSLPVTPGEPASISCRSSQNIVHSNGNTYLEWFLQKPGQSPKLLIYKVSKRFSGVPDRFSGSGSGTDFTLKISRVEAEDVGVYYCFQGSHVPYTFGGGTKVEIKR
B13: 7G7B6 (antibody, V domains shown)
VH: EVQLVESGGDLVQPRGSLKLSCAASGFTFSSYGMSWVRQTPDKRLELVATINGYGDTTYYPDSVKGRFTISRDNAKNTLYLQMSSLKSEDTAMYFCARDRDYGNSYYYALDYWGQGTSVTVSS
VL: QIVLSQSPAILSASPGERVTMTCRASSSVSFMHWLQQKPGSSPKPWIYATSNLASGVSARFSGSGSGTSYSLTITRVEAEDAATYYCQQWSSNPPAFGGGTKLEIK
B14: PR031 (antibody, human IgG1, kappa, V domains shown)
VH: EVQLVQSGAEVKKPGASVKVSCKASGYTFTTYDINWMKQHPGKGLEWIGWIYPRDGSTKYNAKFKGKATLTEDTSANTAYMELSSLRSEDTAVYYCARERIYDGSFDYWGQGTTVTVSS
VL: DIVMTQSPDSLAVSLGERATINCKSSQRLFNSRDQKNYLAWYQQKPGQPPKLLIYGASTRESGVPDRFSGSGSGTDFTLTISSLQAEDVAVYYCQNDHIYPLTFGQGTKLEIKR

Molecular target: T1, recombinant monkey CD25-His protein
Experiment: ELISA, plate coated with monkey CD25-His
Description: (§1) The binding activity of the chimeric anti-CD25 antibody and the CD25 recombinant protein was assayed by ELISA. The 96-well plate was coated with human CD25-His/monkey CD25-His at a concentration of 1 g/mL at 50 μL/well. The unbound antigen was washed away with a washing solution (1×PBST). After washing, the plate was blocked with 1% BSA blocking solution prepared in 1×PBST at 37° C. for 1 h. After washing 3 times with the washing solution, the test chimeric antibodies at different dilution concentrations was added and incubated in an incubator at 37° C. for 1 h. After washing 3 times with the washing solution, 100 μL of goat anti-human IgG secondary antibody diluted at 1:5000 was added and incubated in an incubator at 37° C. for 0.5 h. The plate were washed, the TMB color developing solutions A and B were mixed in a 1:1 ratio for color development. After 15 min, the color development reaction was terminated with 1M hydrochloric acid, and the fluorescence value at 450 nm was measured.

Row | Binder | EC50 [nM]
1 | B1 | 0.399
2 | B2 | 0.115
3 | B3 | 0.524
4 | B4 | 0.349
5 | B5 | 0.234
6 | B6 | 0.147
7 | B7 | 0.23
8 | B8 | 5.57
9 | B9 | 0.311

Molecular target: T2, recombinant human CD25-His protein
Experiment: ELISA, plate coated with human CD25-His
Description: as §1

Row | Binder | EC50 [nM]
10 | B1 | 0.228
11 | B2 | 0.166
12 | B3 | 0.274
13 | B4 | 0.224
14 | B5 | 0.2
15 | B6 | 0.165
16 | B7 | 0.344
17 | B8 | 0.355
18 | B9 | 0.255

Molecular target: T3, human CD25 on cells
Experiment: cell-based or functional assay

Row | Binder | ADCC activity, Multiple of maximum fluorescence value (vs. IgG) [fold]
19 | B10 | 239
20 | B11 | 322
21 | B12 | 386
22 | B13 | 13.3
23 | B14 | 192

Molecular target: T3, human CD25 on cells
Experiment: flow cytometry on SU-DHL-1 cells
Description: Since the lymphoma cell line SU-DHL-1 highly expresses CD25, the binding of chimeric anti-CD25 antibodies to SU-DHL-1 cells was determined by flow cytometry. SU-DHL-1 cells in logarithmic growth phase were selected, collected, washed with PBS, and centrifuged. Each well was plated with 100 μL of 2×10⁵ cells and centrifuged at 400 g for 5 min. The test antibodies at different concentrations were added, incubated on ice for 1 h, washed with PBS, and centrifuged at 400 g for 5 min.

Row | Binder | EC50 [nM]
24 | B1 | 0.18
25 | B2 | 0.119
26 | B3 | 0.1
27 | B4 | 0.501
28 | B5 | 0.329
29 | B6 | 0.15
30 | B7 | 0.132
31 | B8 | 0.345
32 | B9 | 0.168
